Experimental data published in the domain aggregation screens of Martell et al. (2025).

Assay: soluble fraction after stress (log2 fold change); higher = more stays soluble; pooled small domains, quantitative proteomics
Details: stress: 75 degC
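Note: 20 min heating vs room temperature control held 20 min.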

Sequence	soluble fraction (log2)
HMRLSDSEFESIENAIKEKLENSALTADVLVKELSFDEDKIWKVIRWLEDAEKISEDEAGTLLWKPR	-0.0971
HMRLSESLLDDIPGIGAARKRALLQSFGSVRKLRHADAEEIAAKVPGIGLNFAEKIVEALRKK	0.391
HMRLTTTPKTARGLTTMNRIIRAAEVEFGRKGYHYTGITDIAQRAKVASGTIYLYFTDKYSLYVHLLT	0.159
HMRLYTQDVAVLNRDVIQGEVITSDMVTTVNVHKRTVPTGALNLSEIPGNVAKFNIPASIPITASMVTK	-0.0186
HMRMLLKELLIQYEVKNDKSHVEVAKEVGVSLSTYYRWLNGESLHLKKRTIDRLSEVLHYDINQVVEES	-2.52
HMRMLSEGAQRMLRGLAVLEEASADRLLELHQGDYPGFVRSLFALESAGLFQRNGSGTWIRR	-0.91
HMRMNASERQNQIVDLLSQNGVMKIMDIADHFNVSRETIRRDLIILEDDNRIKKWFGGVISAN	-0.706
HMRMQRYYLTDMSEKGREALPGVLDEMGYAGRYTMSDNSIAINSNMIVLSKAIKRAEDIAHNE	-0.089
HMRMRPNERQKRIIELLSFRRHETIGNFANEFGVSRDTIKRDIITLQEEYPIISERGYEGGISLPDGYYI	-1.08
HMRMSLDEAKAVVLPIGEYKGRNMGEVLAIKPELIDFYASQKFNSSKYPYLKEAAQVILENQ	0.114
HMRMSPRERKIYQFIENHPGTKSGEMAEKLGIPLPTIKRLLSDMVASKLLQKHGTGAGTNYSIEE	0.43
HMRMSQLSRLISILTLLKSKRLLTATELAEKYDVSIRTVYRDIRKLEEAGIPVYTIEGRGYSLMDNYT	-1.42
HMRNANENTLKDLPVAVPNIHVSNIEEKKDFHLIQLEYSQEFDPREDLFNFAVNSSWVILKMTPT	0.215
HMRNDIFDQLTEREMQILQEVAKGYRNKQIADHLFISESTVKVHMKSLLKKLQVPSRTAATVLYLERYG	-1.55
HMRNEFEAHSDGTRIQLNDRSKATFSVYDVQGRLIHSFQDFSGSSFNIEPKNQLLIITRETAEGVSVKKLV	0.34
HMRNKTVKEVLDYIEKNSEFIFFYYSKAIDTKRIVSLSVKDQPITVILDQLFKNTDVLYEIKDRQISLKRE	0.1
HMRNTETMKEIQAFVEDYFFEYHQSPSMQKVADAIGTSKSTAYYYVMEMARNGMLHYDGKTIETPHTQKS	-0.82
HMRPDDPYLVIGASREMGDEELKRHYRRLVAETHPDRGIARGLPAEAIAIATRRLAAINAAWDAIERERGL	0.000257
HMRPDSFEAGEAEAGSRLDRLLAARLGIPRNQVQQWIGGGRVTVDAEPVRASLVVRAGMRIAWDPPPPP	-1.56
HMRPEKLVLKALRGAHGPLSAEEVAGRIEADGGAGLDVARVEHVLGQLERSGTVAALGGGKYLALR	0.692
HMRPHDDHLREQLLGIATETIARTGVEGLSLRTLATDAGTSTSAVYQLFGSRAALLDAVYLRVLE	-1.47
HMRPLISQTLRIDRGEGDIAGPLGVLAKEYPHLSMGSYPFQKDGIYGAHVVIRGSDPGMVEAAMDKLKAAF	0.338
HMRPLTPLEKLTPDADGKYYHIVQSGETLSWIAKLYETTAEKLQAWNNLFSSDIFPNQKLLLQVTPP	0.134
HMRPPLEWGTHGEITTRTVASGYVRASARVRLWDGELQRMTATASTASDARASLQHRIAERLRFSEL	-1.45
HMRPPLRAAIIDHLARDWHTVAELARLLPASGAHVSRLVVELRAVGAVDERISHPDWPGNRPTEYRLRRA	-3.57
HMRPTHYSGPSVIAMINNRVWFSDGSRLAPGEHHDDLEVVGLSPPWSAKVRWQGVEFDVGLFE	-2.35
HMRQGHLDLLRQIHALPPSTREVVYLRAFGGLSFREIGDVLGRTETWARVTFYRGKEALRKG	-0.106
HMRQHHMIISTKLGTPKEELAKLVSGFEDQGLRVSVITGTDYTVIGLVGDTTHLDEKRIRANPYVDNVQRV	-0.813

Sequence	soluble fraction (log2)
HMRQIMIIVLKSTATKEDSLLFKNKLEQEYGVKVNEWTGVESTVLGLIGDTTKIDIDYISAQDIVESVKRV	-2.27
HMRQKTTFFATESFELPNGEKVEEGQIFRLNDGAFNIAEQQGITRFLTSEANYGRMIAANAEVEKAKLDA	0.605
HMRQLISIYNNTIGADEIDQMRNILSNSGYKEGVDFAVQTADKKSVILVRRDLAGMIQEQLSGEGLPS	-0.119
HMRQNPESFLNHKVKKNESLESLTKKYELTENEIIFYNPLIQKIGLKKRMILKIPIYNNQNLVTKSVD	-0.15
HMRQPRGQRVTVREASSLLPFLFAHLTDRSRSAVKSLLRHGQIWVNGRVTTHFDMPLRPGDTVLISHERG	-1.33
HMRQSQEVSGGERYRRLTAYLDTHPFITRKEYSGITGLLKNKALNDLNLLVNKGYLEAMGRGSHKVYVRPM	-0.86
HMRQSSLRTRELLIDAARQLFARFGVEKTTMNDIAEASKRGRRTVYMYFNSKSDVFYAVVGRE	-0.0881
HMRQVFPNPSSSQIKLASSRIGQAFSILDQQGRVVLSGKVSEEAVIALENLAKGIYVLKIGSWSETILK	-2.89
HMRRATLERLANNTAEKAIRYKRSLALEPMNPQERRIIHAALQEVEGVSTHSVGTEPNRKVIVVPDGV	-0.329
HMRRFEFSDGSSNKFWQITRDGTSLTVTFGKIGTAGQTQLKELATEAAAIAEHDKLVKEKTKKGYAEVG	-0.174
HMRRGFGYVRKLPSGRWQASFVGPDLARHSAPHTFETKGDAEGWLGRRQADVVAGEWRPPVP	-0.00612
HMRRISLEDWQLIESLIRRDWSPEQISLWLKKYKKIRVSHEWIYQYILKDKSKAGDLHTHLRSR	0.00689
HMRRKNQVQSSYQKRENGTYTVRFFLSDDMGSIMDLQLMATREDMARALRERFLKDPEKIYGQIMQMLLR	-1.23
HMRRLGTTEIAGILRREISQGILIAKERLPSERSLADTYGVARGTVRQALNLLAREGLVQIRRSSGAYVTF	-0.458
HMRRMAYLVGQRGLAMGDFISGTGQVRIGDTVWRAEAVEGELVRTGDTVVVEGAKMTTAIVRRVM	-1.81
HMRRRKPLVSYEYGTRVYAPSEGEPRYRVVATDADGQRVFAKFSSEEAARHRAREIEGRLATS	-0.26
HMRRSSQQLTLTEVSTIKEMVTSEEYRHVPTGTLALLAQRLRKVFASSSTWYRLVRIYKWRRPRGRIH	-0.329
HMRRSVYQANVLDAIKHLVDQNELATTKAIAEYIGDDYQGNVSRAIRELLADRKIKKLPKVGVLQPYEA	-0.442
HMRRVEDVRTALEHFAAARNTTPMAMTLDQRREAMRELAASGLLNLRRALSEVAQTLGVARSTVYTYLP	-1.39
HMRSAKEYKAIREEIYRFIGAYITKHVYAPSNKEIAEAVGISGTTVHRHLIDMIDEGILETD	-2.65
HMRSFGTLRRLPSGRYQASYAGPDLRRHAAPTTFETKLDAEGWLRDEHRMIERDEWTAPAARSQLK	-0.0721
HMRSFRIGGLVEQGSIARDGQSLTVRFAVTDLAHKIPVTYTGLLPDLFKEGKGVVAEGKLGPDGVFHASQV	-0.0831
HMRSPIWKSITATLTAEIAGGQYRAGDKLPTEAELSQRFGVNRHTLRRALAEMAGAGLVVARRGAGVFVQG	-2.5
HMRSPLYVQIKQHILGDIRKGVWKPGEKLPTELDLAERFGVSVGTVRRAMGGLEDEGIISRREGSGTFVRT	-0.458
HMRSSAATMFGRIALKNKLVDEATLKKVMSELPAGADLGAVLVKQGLISEQHAEAIQKKITAHMKSAP	-0.114
HMRSSALDEIPGIGKQRKKNLLVHFTSVAKIKEASLDEIAAVPGMNRKAALVVVEFFQNQERE	-2.28
HMRSSNEAVSQRRDKILDYISATGRTSTEIVAKEFGVSVMTARRDLLYLMEKRLISKSSSGLFKVDNN	-3.09
